Experiment: soluble on expression in E. coli; label from the status in PepcDB or PDB records

| Sequence | soluble on expression in E. coli |
| --- | --- |
| MSLKVFYMNVVIITGAASGIGHALSQVCLSNGKTIVMVDKNQDKLHTEAQSFMTKFSPEHVICFACDVTQPSEVERLAEYSCKQLGQVDWIFNNAGIIGNLLPAWELQENDINQVMQVNLHGMLNIIRSFMPYLFKQNFRSHIINMASLYALCTGSQMAAYSMSKHAVLALSESLYFDLNRLKKPVDVSVVFPSFTDTSLLASSGKLNHSPIHNQLNNLLAHSRPAIEVAEHIVREVEQKRFYILPDKEVKGYCEDRTKAILLQENPHRNSVEQLMCSLLKRQSSEANEGHHHHHH | soluble |
| MALQVASAPHGSSEDSTSASLPANYPYHTRMRRNEYEKAKHDLQIELLKVQSWVKETGQRVVVLFEGRDAAGKGGTIKRFMEHLNPRGARIVALEKPSSQEQGQWYFQRYIQHLPTAGEMVFFDRSWYNRAGVERVMGFCSPLQYLEFMRQAPELERMLTNSGILLFKYWFSVSREEQLRRFISRRDDPLKHWKLSPIDIKSLDKWDDYTAAKQAMFFHTDTADAPWTVIKSDDKKRARLNCIRHFLHSLDYPDKDRRIAHEPDPLLVGPASRVIEEDEKVYAEAAAAPGHANLDIPA | not soluble |
| MPKETFFNLPKDKRNLIISAAMDEFSKAGYNTASINQICKKSNIPKGSFYQYFTDKLDLYVYIMTLTIEEKIKFFSSAIAEFHTLTFLEQFRLLFLKGLEFAKKHPQYAALADQFSKEDNESVKSAVIKEGDKQAESLFMQMIHNAKTKGEIDSKVDSLALCLLLQSLNSAVNKYMIGKFGGISYEYNQEDINNFVDSLLDIIFSGIQNKAD | not soluble |
| MLTISNQVQLADWEIELTAIRAQGAGGQNVNKVSSAIHLRFDISRSTLPAFYKERLLKMRDHRITKEGIIIIKAQQFRTQEKNREDALDRLKQLIQSATETQKARKETKPTRSSQHKRMDKKSQRGQTKSMRKKVDYLEHHHHHH | soluble |
| METEDHAFRIEDIFPFLDPYVSKWFDINYRSLTEPQKYAIPFIHEGRNVLVSSPTGTGKTLTAFLSIINELFMLARSGKLEDKIYCVYISPLKALANDVNKNLRAPLEGIYKIADEDGINLPKIRVSVRSGDTSEGERQKMARKPPHILITTPESFSLTLSSPRMRENLRDVKYVIIDEIHEISSTKRGSLLSANMERLEALRPGILRIGLSATQSP | not soluble |
| MKKLMLGNEAVARGAYEAGVLVATAYPGTPSTEITEYISKYSEINSEWSVNEKVALEVGIGSAIAGARTIVSMKHVGLNVAADPLMTVAYTGINAGLLIVVADDPSMHSSQNEQDTRYYGMFAKIPVLEPSDSQECKDFVKLGFEISEKFDTPVILRLSTRVSHSQSLVELEEKESIELKPYD | not soluble |
| MGSDKIHHHHHHMVTSPSLKGLQAFEAAARAGSFAAAAEELSVSAAAVSQLIRTVEEQMGRKLFHRVNRKVVLTEAGVEILPRLTMAFQEIGSVSRELDGDAFRPRLVVSVPPSMAMGWLSQRLAGFVASHGAADISLRGDDDPVPFDRELIDIRLSYGPHYREHPTEDIARDAVYPVCAPGLASAIKADGGPLAGLPLIHTDWGPTGASFPSWRNWFEAEGVQPGRAAQRGLSANSSRAALDLAISGLGVTLAQGVYCAEALEDGRLVRPAARVIALRQPYCLTIPERSARRDVVAAFRDWLIEECRRAVGSPALR | not soluble |
| MDTLRYLTGYPPAVLEQVRALIAQDKLGAVLAQRYPERHTVRTDRQLYDYVKEMKERYMRSSPTLHKAIYDNHLQVVKHALGTHTAISRVHGSRLKASREIRIAAIFRDAPAPFLQMIVAHELAHLKEPEHDKAFYQLCHHMAPDYHQLEFDLRLYLTQLALSPRDLEHHHHHH | soluble |
| MDLMSFKEKEISKKDCLELFEDTENFFDVIKLADSIRKDIVGDTVTYVVNANINFTNVCSGTCKFCAFKAEHGDPNAFFLNPDEVAKKALEARKIGATEVCIQGGLLKEIDTYFQAEILKKVKKITEPYEEIVVHAFSPMEVKSAAENAGLSVNEALKILKENGLNSMPGTAAEILNDEIRSEICPTKLKTSEWIDVVTNAHKTGIKTTCTMMYGHIEENKHLAEHLSILRKIQKETGGFTEFVPLTFLHENAPLHHMERVKSGASGMLDLKTYAISRIFFKDYIKNIQTSWVKLGTKLSQVSLNCGANDIGGTLMEESISKAAGGSYGTFMSEEKLKDMILAVGRIPKQRNTAYEIIE | not soluble |
| MADLPISLLQTLAYKQPLGRNSRIVHFTDGALFPVVAFGDNHSTSELYIAVRGDHRDLMSPDVRDSYALTGDDHKVWGATHHTYYVEGAPKKPLKFNVKTRTDLTILPVADVFWRADGSADVDVVWNDMPAVAGQSSSIALALASSLPFVPKAAYTGCLSGTNVQPVQFGNLKARAAHKIGLPLVGMTQDGGEDTRICTLDDAADHAFDSMESTVTR | soluble |
| LIEGSERLSGLTDVDEVIKDLSRLLRKLVKTRWIAVYFFDRERRDFAPARSTGLPASFLPVFREMPLAPDKIPLLKSMLRKRQHLMLTDPGSSDLLTPKLRKLLRNLCVLAVPMVVRTQVIGAVFMARTRDNPPFSDAETAIIRDLVSHAALVVSHMQLFDE | soluble |
| MGSDKIHHHHHHMKLTCMQEDLKRGLAAVGHAVAGKSTLPVLANILLATDEGRLKLTATNLEVGINRWISATITRDGAVAVPAKLLTDVVGGLPNDKVTLSLDQKTQTLRVECGRFVSNIKGVDADEFPSLPTVSAQTPLVSLPAEVWQEAIDQVAFAAATDESRPILTGVLVRTRDQQVTLVAADGFRLAMRTIQLSAPVAHAVDCLIPARTLSELARIIGDTDAEVAMVYTPGGSHVLFHTENIEVVSRLIEGRFPDFERIIPQQYLTRMVLDNSELAKAVKLASFFAGSSQNVVKLKIEPASELAPGRVVISANAAELGDNTSELDGSVTGEGGVIALNVRFLADAIAAVHSNQIAFEMQSAQSPAVFKPVGQDGYIHIVMPMSMR | not soluble |
| MKDKDLLVLAAKAADDKRAEDMVVLNMQGISPIADYFIICHGNSDKQVQAIAREIKAKAHEFQIDVQRMEGFDEARWVLVDLGDVVAHVFHKDERNHYNLERLWGDVPREDITEELGQLEHHHHHH | not soluble |
| MDYKDDDDKLVDSLRACVFDAYGTLLDVHSAVMRNADEVGASAEALSMLWRQRQLEYSWTRTLMHQYADFWQLTDEALTFALRTYHLEDRKGLKDRLMSAYKELSAYPDAAETLEKLKSAGYIVAILSNGNDEMLQAALKASKLDRVLDSCLSADDLKIYKPDPRIYQFACDRLGVNPNEVCFVSSNAWDLGGAGKFGFNTVRINRQGNPPEYEFAPLKHQVNSLSELWPLLAKNVTKAA | soluble |
| MSLKDGTFQIAIFSDMHFGQYESTTGPEQDRNSVEVLNKVLDYDTPDLVVLNGDLINGDSTWKHNSTHYIDMIVEPMVNRSLTWASTYGNHDHNYNINGDDILVREQMWPGARTQKMVNKTRSGTTNYYLPVYPSDCSNTSDCSPQMILWFFDSRGGNYYQGSWQENWVDQSVVDWFNETSTELTSKHNKTIPSLAFVHVPPNATVALQTELGIRKNNQPGINDDPPVPQQGYGWCADGTPTYDCPYGGQDIPFMEALVTIPGIIGLFYGHDHGNTWCYRWDTKLDGMDIEGNGIHLCYGQHSGYGGYGDWIRGAREIVVTEDMLEKNEVETYIRLESGDVVGKVMLNSTYNEGHHHHHH | not soluble |
| MSLIKITIGICEYPSVLKSAVYGFEEMFLLANRICKEQNIEVVFEPILIPHTGLTAERLTVVLLPPASLDNYYLAPDDALIRWLKAHYSQGTVLSSACAGVFILAATNLIDSREVTTHWALAETFSQAFPSIALDSNKILINHGDIVTAGGMMSWLDLGFELIAKYASPGVVRQLGKTLVIDTAQRAQSYYQQFHPSFSHGDYAIVSIQQIMHQRYAEPLSIKQLAKQANLTERTMQRRFLKATGYNPNQYLQRLRIQSACHLLESTQHSFDSISHQVGYEDTSACRKVFINVIGLTPREFRKRFAEGHHHHHH | soluble |
| HEHNTIPKGASIEVKVQQLDPVNGNKDVGTVTITESNYGLVFTPDLQGLSEGLHGFHIHENPSCEPKEEEGELTAGLGAGGHWDPKGAKQHGYPWQDDAHLGDLPALTVLHDGTATNPVLAPRLKHLDDVRGHSIMIHTGGDNHSDHPAPLGGGGPRMACGVIK | soluble |
